Assay results published in US20140341917A1 (Merck KGaA, published 2014).
Changes are numbered by the printed parent chain. Names and notes keep the numbering of the source.

T1: huB7-H2-huFc (human, UniProt O75144 19-258, limits assumed)
T1 construct: not shown: human Fc (huFc)
T1 sequence (looked up): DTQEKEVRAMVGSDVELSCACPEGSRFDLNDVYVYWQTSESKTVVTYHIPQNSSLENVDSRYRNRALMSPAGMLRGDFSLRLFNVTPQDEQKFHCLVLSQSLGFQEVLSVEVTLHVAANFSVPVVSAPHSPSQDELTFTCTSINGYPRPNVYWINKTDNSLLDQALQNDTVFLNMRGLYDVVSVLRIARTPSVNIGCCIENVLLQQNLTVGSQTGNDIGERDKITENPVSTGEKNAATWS

T2: hu-B7.1-huFc (human, UniProt P33681 35-242, limits assumed)
T2 construct: not shown: human Fc (huFc)
T2 sequence (looked up): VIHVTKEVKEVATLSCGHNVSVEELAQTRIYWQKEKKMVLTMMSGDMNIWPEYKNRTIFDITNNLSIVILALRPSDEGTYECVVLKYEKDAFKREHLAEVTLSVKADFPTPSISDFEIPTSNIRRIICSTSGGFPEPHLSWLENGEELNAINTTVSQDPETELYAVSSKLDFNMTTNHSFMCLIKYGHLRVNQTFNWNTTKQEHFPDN

T3: huB7-H3-huFc (human, UniProt Q5ZPR3-2 29-245, limits assumed)
T3 construct: not shown: human Fc (huFc)
T3 sequence (looked up): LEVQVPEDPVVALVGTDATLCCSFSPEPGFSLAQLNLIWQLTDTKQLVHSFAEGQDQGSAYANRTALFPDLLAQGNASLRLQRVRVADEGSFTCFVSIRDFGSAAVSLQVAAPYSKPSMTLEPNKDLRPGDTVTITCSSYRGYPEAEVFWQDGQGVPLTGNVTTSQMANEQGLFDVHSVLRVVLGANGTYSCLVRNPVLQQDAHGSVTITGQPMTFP

T4: hu-B7.2-huFc (human, UniProt P42081 26-245, limits assumed)
T4 construct: not shown: human Fc (huFc)
T4 sequence (looked up): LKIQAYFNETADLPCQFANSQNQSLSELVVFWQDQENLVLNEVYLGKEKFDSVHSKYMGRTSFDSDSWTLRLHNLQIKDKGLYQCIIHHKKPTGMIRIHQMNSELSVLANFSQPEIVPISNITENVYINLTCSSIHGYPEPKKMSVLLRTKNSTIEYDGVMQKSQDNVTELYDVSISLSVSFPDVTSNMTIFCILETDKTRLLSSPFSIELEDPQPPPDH

T5: hu-PDL-2-huFc (human, UniProt Q9BQ51 20-219, limits assumed)
T5 construct: not shown: human Fc (huFc)
T5 sequence (looked up): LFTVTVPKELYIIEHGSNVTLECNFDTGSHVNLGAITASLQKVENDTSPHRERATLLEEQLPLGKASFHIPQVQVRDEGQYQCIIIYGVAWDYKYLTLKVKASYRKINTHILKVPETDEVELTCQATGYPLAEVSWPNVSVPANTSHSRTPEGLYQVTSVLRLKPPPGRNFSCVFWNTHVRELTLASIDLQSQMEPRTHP

B1: A09-246-2 (antibody, human IgG1, lambda, V domains shown)
VH: EVQLLESGGGLVQPGGSLRLSCAASGFTFSSYIMMWVRQAPGKGLEWVSSIYPSGGITFYADTVKGRFTISRDNSKNTLYLQMNSLRAEDTAVYYCARIKLGTVTTVDYWGQGTLVTVSS
VL: QSALTQPASVSGSPGQSITISCTGTSSDVGGYNYVSWYQQHPGKAPKLMIYDVSNRPSGVSNRFSGSKSGNTASLTISGLQAEDEADYYCSSYTSSSTRVFGTGTKVTVLG
notes: lambda light chain
B2: A09-188-1 (antibody, human IgG1, lambda, V domains shown)
VH: B1 VH with S31M, I33M, T63S, V93I
VL: B1 VL with G31A
notes: Parent antibody, lambda light chain, expressed as IgG
B3: A09-204-1 (antibody, human IgG1, lambda, V domains shown)
VH: B1 VH with S31I, M35F
VL: B1 VL with G31A
notes: positions counted from the N-terminus of the chain; also called VH-M31I, M33I, M35F, S63T, I93V
B4: A09-244-2 (antibody, human IgG1, lambda, V domains shown)
VH: B1 VH with M35F
VL: B1 VL
notes: also called VL-A31G; VH-M31S, M33I, M35F, S63T, I93V
B5: A09-242-2 (antibody, human IgG1, lambda, V domains shown)
VH: B1 VH with S31M, I33L, M35F
VL: B1 VL
notes: also called VL-A31G; VH-M33L, M35F, S63T, I93V
B6: A09-245-2 (antibody, human IgG1, lambda, V domains shown)
VH: B1 VH with I33L, M35F
VL: B1 VL
notes: also called VL-A31G; VH-M31S, M33L, M35F, S63T, I93V
B7: A09-215-1 (antibody, human IgG1, lambda, V domains shown)
VH: B1 VH with S31M, I33L, M35F
VL: B1 VL with G31A
notes: 193V read as I93V; also called VH-M33L, M35F, S63T, 193V
B8: A09-248-2 (antibody, human IgG1, lambda, V domains shown)
VH: B1 VH with S31I, M35F
VL: B1 VL
notes: also called VL-A31G; VH-M31I, M33I, M35F, S63T, I93V
B9: A09-212-1 (antibody, human IgG1, lambda, V domains shown)
VH: B1 VH with S31M, M35F
VL: B1 VL with G31A
notes: 193V read as I93V; also called VH-M33I, M35F, S63T, 193V
B10: A09-239-2 (antibody, human IgG1, lambda, V domains shown)
VH: B1 VH with S31I, I33L, M35F
VL: B1 VL
notes: also called VL-A31G; VH-M31I, M33L, M35F, S63T, I93V
B11: A09-243-2 (antibody, human IgG1, lambda, V domains shown)
VH: B1 VH with S31I, I33L
VL: B1 VL
notes: also called VL-A31G; VH-M31I, M33L, S63T, I93V
B12: A09-214-1 (antibody, human IgG1, lambda, V domains shown)
VH: B1 VH with S31I
VL: B1 VL with G31A
notes: 193V read as I93V; also called VH-M31I, M33I, S63T, 193V
B13: A09-211-1 (antibody, human IgG1, lambda, V domains shown)
VH: B1 VH with S31I, I33L, M35F
VL: B1 VL with G31A
notes: 193V read as I93V; also called VH-M31I, M33L, M35F, S63T, 193V
B14: A09-223-1 (antibody, human IgG1, lambda, V domains shown)
VH: B1 VH with I33M, M35F
VL: B1 VL with G31A
notes: also called VH-M31S, M35F, S63T, I93V
B15: A09-220-1 (antibody, human IgG1, lambda, V domains shown)
VH: B1 VH with I33L, M35F
VL: B1 VL with G31A
notes: also called VH-M31S, M33L, M35F, S63T, I93V
B16: A09-241-2 (antibody, human IgG1, lambda, V domains shown)
VH: B1 VH with S31I
VL: B1 VL
notes: also called VL-A31G; VH-M31I, M33I, S63T, I93V
B17: A09-202-1 (antibody, human IgG1, lambda, V domains shown)
VH: B1 VH with S31M, I33M, T63S, V93I
VL: B1 VL
notes: also called VL-A31G
B18: A09-213-1 (antibody, human IgG1, lambda, V domains shown)
VH: B1 VH with S31I, I33M, M35F
VL: B1 VL with G31A
notes: 193V read as I93V; also called VH-M31I, M35F, S63T, 193V
B19: A09-247-2 (antibody, human IgG1, lambda, V domains shown)
VH: B1 VH with I33L
VL: B1 VL
notes: also called VL-A31G; VH-M31S, M33L, S63T, I93V
B20: A09-222-1 (antibody, human IgG1, lambda, V domains shown)
VH: B1 VH with I33L
VL: B1 VL with G31A
notes: also called VH-M31S, M33L, S63T, I93V
B21: A09-240-2 (antibody, human IgG1, lambda, V domains shown)
VH: B1 VH with S31M, M35F
VL: B1 VL
notes: also called VL-A31G; VH-M33I, M35F, S63T, I93V
B22: A09-219-1 (antibody, human IgG1, lambda, V domains shown)
VH: B1 VH with M35F
VL: B1 VL with G31A
notes: also called VH-M31S, M33I, M35F, S63T, I93V
B23: A09-216-1 (antibody, human IgG1, lambda, V domains shown)
VH: B1 VH with S31I, I33L
VL: B1 VL with G31A
notes: 193V read as I93V; also called VH-M31I, M33L, S63T, 193V

target: T6, cynomolgus monkey PD-L1 expressed on the HEK cell surface (cynomolgus monkey, UniProt G7PSE7 19-290); test: direct FACS binding, HEK cells expressing cynomolgus monkey PD-L1
T6 construct: The sentence prints only 'cynomolgus monkey expressed on the HEK cell surface'
T6 sequence (G7PSE7 entry or part of it limits assumed): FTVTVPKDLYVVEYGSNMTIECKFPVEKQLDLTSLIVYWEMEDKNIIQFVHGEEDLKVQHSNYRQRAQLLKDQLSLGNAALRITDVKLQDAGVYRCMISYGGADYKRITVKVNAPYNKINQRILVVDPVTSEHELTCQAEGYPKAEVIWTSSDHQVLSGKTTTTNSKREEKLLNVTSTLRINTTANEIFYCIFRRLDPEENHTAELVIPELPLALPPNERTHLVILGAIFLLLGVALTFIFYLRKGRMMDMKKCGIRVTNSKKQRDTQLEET

Row | EC50 [nM] | Binder
1 | 0.94 | B1

target: T1, huB7-H2-huFc; test: Biacore

Row | binding result | Binder
2 | no binding | B1

target: T2, hu-B7.1-huFc; test: Biacore

Row | binding result | Binder
3 | no binding | B1

target: T3, huB7-H3-huFc; test: Biacore

Row | binding result | Binder
4 | no binding | B1

target: T4, hu-B7.2-huFc; test: Biacore

Row | binding result | Binder
5 | no binding | B1

target: T5, hu-PDL-2-huFc; test: Biacore

Row | binding result | Binder
6 | no binding | B1

target: T7, human PD-L1 (human, UniProt Q9NZQ7 19-238, limits assumed); test: Biacore kinetic profile
T7 construct: Protein used in the Biacore assays of 3.1
T7 sequence (Q9NZQ7 19-238 limits assumed): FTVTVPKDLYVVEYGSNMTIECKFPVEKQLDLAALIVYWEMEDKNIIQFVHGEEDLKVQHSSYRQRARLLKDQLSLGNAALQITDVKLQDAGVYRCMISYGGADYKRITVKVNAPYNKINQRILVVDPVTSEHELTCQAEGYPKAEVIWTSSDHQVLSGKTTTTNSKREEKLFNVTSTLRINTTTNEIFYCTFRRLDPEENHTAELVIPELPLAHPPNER

Row | Kd [nM] | t½ [h] | Binder
7 | 5.29 | 0.22 | B2
8 | 0.1 | 9.64 | B3
9 | 0.12 | 4.66 | B4
10 | 0.76 | 0.927 | B5
11 | – | 1.29 | B6
12 | 1.28 | 0.843 | B7
13 | 0.1 | 7.27 | B8
14 | – | 4.24 | B9
15 | – | 2 | B10
16 | – | 1.42 | B11
17 | 0.4 | 2.98 | B12
18 | – | 1.82 | B13
19 | 3.62 | 0.225 | B14
20 | – | 1.14 | B15
21 | 0.32 | 2.77 | B16
22 | 4.15 | 0.313 | B17
23 | 2.51 | 0.462 | B18
24 | 0.76 | 0.963 | B19
25 | 1.24 | 0.785 | B20
26 | 0.16 | 4.1 | B21
27 | 0.18 | 4.64 | B22
28 | 0.91 | 1.3 | B23

target: T7, human PD-L1; test: Biacore; relative to A09-188-1

Row | Relative KD | Binder
29 | 1 | B2
30 | 0.02 | B3
31 | 0.03 | B4
32 | 0.16 | B5
33 | 0.24 | B7
34 | 0.02 | B8
35 | 0.08 | B12
36 | 0.68 | B14
37 | 0.07 | B16
38 | 0.78 | B17
39 | 0.47 | B18
40 | 0.16 | B19
41 | 0.23 | B20
42 | 0.03 | B21
43 | 0.03 | B22
44 | 0.17 | B23

target: T8, mouse PD-L1 (mouse, UniProt Q9EP73 19-238, limits assumed); test: ELISA, later Biacore and FACS on PD-L1 expressing cells (hit selection, IgG format)
T8 construct: Biacore protein
T8 sequence (Q9EP73 19-238 limits assumed): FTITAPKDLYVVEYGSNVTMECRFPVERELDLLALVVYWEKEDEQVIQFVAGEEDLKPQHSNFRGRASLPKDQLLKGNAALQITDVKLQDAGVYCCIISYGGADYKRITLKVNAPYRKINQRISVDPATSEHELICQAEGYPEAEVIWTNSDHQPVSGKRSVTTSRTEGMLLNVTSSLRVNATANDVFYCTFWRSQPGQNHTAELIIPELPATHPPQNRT

Row | binding result | Binder
45 | binds | B2
